Test results as given in patent publication US20030059812.

Target: 3H-histones isolated from murine erythroleukemia cells

B1: HDAC9a-FLAG (C-terminal FLAG-tagged HDAC9a, expressed from pFLAG-CMV-5b-HDAC9a, plasmid VR2) (protein)
chain: MHSMISSVDVKSEVPVGLEPISPLDLRTDLRMMMPVVDPVVREKQLQQELLLIQQQQQIQKQLLIAEFQKQHENLTRQHQAQLQEHIKELLAIKQQQELLEKEQKLEQQRQEQEVERHRREQQLPPLRGKDRGRERAVASTEVKQKLQEFLLSKSATKDTPTNGKNHSVSRHPKLWYTAAHHTSLDQSSPPLSGTSPSYKYTLPGAQDAKDDFPLRKTASEPNLKVRSRLKQKVAERRSSPLLRRKDGNVVTSFKKRMFEVTESSVSSSSPGSGPSSPNNGPTGSVTENETSVLPPTPHAEQMVSQQRILIHEDSMNLLSLYTSPSLPNITLGLPAVPSQLNASNSLKEKQKCETQTLRQGVPLPGQYGGSIPASSSHPHVTLEGKPPNSSHQALLQHLLLKEQMRQQKLLVAGGVPLHPQSPLATKERISPGIRGTHKLPRHRPLNRTQSAPLPQSTLAQLVIQQQHQQFLEKQKQYQQQIHMNKLLSKSIEQLKQPGSHLEEAEEELQGDQAMQEDRAPSSGNSTRSDSSACVDDTLGQVGAVKVKEEPVDSDEDAQIQEMESGEQAAFMQQPFLEPTHTRALSVRQAPLAAVGMDGLEKHRLVSRTHSSPAASVLPHPAMDRPLQPGSATGIAYDPLMLKHQCVCGNSTTHPEHAGRIQSIWSRLQETGLLNKCERIQGRKASLEEIQLVHSEHHSLLYGTNPLDGQKLDPRILLGDDSQKFFSSLPCGGLGVDSDTIWNELHSSGAARMAVGCVIELASKVASGELKNGFAVVRPPGHHAEESTAMGFCFFNSVAITAKYLRDQLNISKILIVDLDVHHGNGTQQAFYADPSILYISLHRYDEGNFFPGSGAPNEVRFISLEPHFYLYLSGNCIA
- HDAC enzymatic activity (3H-acetic acid released from 3H-histones): HDAC9a-FLAG deacetylated 3H-acetyl-histones
